This is an account of results in doi:10.1101/2021.03.15.435402, “GTP and lipids control self-assembly and functional promiscuity of Dynamin2 molecular machinery” (bioRxiv, 2021).

Data set [1] concerns the molecule itself. The experiment in a line: single-molecule fluorescence microscopy (oligomer size from mEGFP intensity); Dyn2-mEGFP (10-20 nM) premixed with 0.2 mM LUVs (Rh-DOPE) added to nanotubes, no GTP; mEGFP fluorescence colocalized with LUVs tethered to the nanotube.
Data set [2] concerns the molecule itself. Kind of data set: single-molecule fluorescence microscopy (oligomer size from mEGFP intensity); Dyn2-mEGFP 20 nM pulse-perfused on membrane nanotubes (40 mol% PE, 0.1 mol% Cy5-PE), protein washed off from the bulk, no nucleotide (apo); total fluorescence divided by the mean intensity of a single mEGFP.

B1: Dyn2 labeled with monomeric GFP (Dyn2-mEGFP) (natural protein, UniProt P50570 1-870, looked up)
chain: MGNRGMEELIPLVNKLQDAFSSIGQSCHLDLPQIAVVGGQSAGKSSVLENFVGRDFLPRGSGIVTRRPLILQLIFSKTEHAEFLHCKSKKFTDFDEVRQEIEAETDRVTGTNKGISPVPINLRVYSPHVLNLTLIDLPGITKVPVGDQPPDIEYQIKDMILQFISRESSLILAVTPANMDLANSDALKLAKEVDPQGLRTIGVITKLDLMDEGTDARDVLENKLLPLRRGYIGVVNRSQKDIEGKKDIRAALAAERKFFLSHPAYRHMADRMGTPHLQKTLNQQLTNHIRESLPALRSKLQSQLLSLEKEVEEYKNFRPDDPTRKTKALLQMVQQFGVDFEKRIEGSGDQVDTLELSGGARINRIFHERFPFELVKMEFDEKDLRREISYAIKNIHGVRTGLFTPDLAFEAIVKKQVVKLKEPCLKCVDLVIQELINTVRQCTSKLSSYPRLREETERIVTTYIREREGRTKDQILLLIDIEQSYINTNHEDFIGFANAQQRSTQLNKKRAIPNQGEILVIRRGWLTINNISLMKGGSKEYWFVLTAESLSWYKDEEEKEKKYMLPLDNLKIRDVEKGFMSNKHVFAIFNTEQRNVYKDLRQIELACDSQEDVDSWKASFLRAGVYPEKDQAENEDGAQENTFSMDPQLERQVETIRNLVDSYVAIINKSIRDLMPKTIMHLMINNTKAFIHHELLAYLYSSADQSSLMEESADQAQRRDDMLRMYHALKEALNIIGDISTSTVSTPVPPPVDDTWLQSASSHSPTPQRRPVSSIHPPGRPPAVRGPTPGPPLIPVPVGAAASFSAPPIPSRPGPQSVFANSDLFPAPPQIPSRPVRIPPGIPPGVPSRRPPAAPSRPTIIRPAEPSLLD
notes: Dynamin 2 (Dyn2) fused to monomeric EGFP; source: purified
As to B1, the “stoichiometry N” value was determined as 38 ± 16 molecules in data set [1] and 12 ± 6 mEGFP units in data set [2].

Usually stoichiometry N stands for the number of molecules, sites or subunits per partner or assembly.
